Series [1] concerns the target T1, FadR_ec (Escherichia coli (K-12), UniProt P0A8V6 1-239). Kind of series: EMSA; 5 pmol protein, 0.2 pmol probe; EMSA: Roche binding buffer, 20 min, room temperature, 0.2 pmol DIG probe (10 uL in Fig. 6), 7% native PAGE; SPR: Biacore3000, 20 mM Tris-HCl pH 7.5, 200 mM NaCl.
Series [2] has as its target T2, FadR_she (Shewanella oneidensis, UniProt Q8ED80 1-240). The series is described as above.
The target in a further series is FadR_vc (Vibrio cholerae, UniProt Q9KQU8 1-279). Kind of series: EMSA; 5 pmol protein; super-shifted band attributed to multimer; EMSA: Roche binding buffer, 20 min, room temperature, 0.2 pmol DIG probe (10 uL in Fig. 6), 7% native PAGE; SPR: Biacore3000, 20 mM Tris-HCl pH 7.5, 200 mM NaCl.
Series [3] concerns the molecule itself. Description: SEC; Superdex 75 column on an Akta FPLC, 0.35 mL/min, 20 mmol/L Tris-HCl, 50 mmol/L NaCl, pH 7.9; peak at 10.5 mL, between the 44 kDa and 67 kDa standards.
Series [4] concerns the target T2, FadR_she. Kind of series: SPR; 2:1 (FadR dimer per DNA); EMSA: Roche binding buffer, 20 min, room temperature, 0.2 pmol DIG probe (10 uL in Fig. 6), 7% native PAGE; SPR: Biacore3000, 20 mM Tris-HCl pH 7.5, 200 mM NaCl.
The target in series [5] is T1, FadR_ec. Description: EMSA; C10:0-CoA ~50 pmol; EMSA: Roche binding buffer, 20 min, room temperature, 0.2 pmol DIG probe (10 uL in Fig. 6), 7% native PAGE; SPR: Biacore3000, 20 mM Tris-HCl pH 7.5, 200 mM NaCl.

Results on five molecules are retold here after PMC4537474 (Protein & Cell, 2015).

T1 sequence (P0A8V6 whole entry): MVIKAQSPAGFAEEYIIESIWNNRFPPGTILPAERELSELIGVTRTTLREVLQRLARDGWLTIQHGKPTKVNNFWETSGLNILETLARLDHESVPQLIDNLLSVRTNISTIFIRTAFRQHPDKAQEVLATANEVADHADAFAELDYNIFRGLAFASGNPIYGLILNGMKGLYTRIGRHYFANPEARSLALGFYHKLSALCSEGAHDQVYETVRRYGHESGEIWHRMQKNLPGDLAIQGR
Chain of FadR_vc (Q9KQU8 whole entry): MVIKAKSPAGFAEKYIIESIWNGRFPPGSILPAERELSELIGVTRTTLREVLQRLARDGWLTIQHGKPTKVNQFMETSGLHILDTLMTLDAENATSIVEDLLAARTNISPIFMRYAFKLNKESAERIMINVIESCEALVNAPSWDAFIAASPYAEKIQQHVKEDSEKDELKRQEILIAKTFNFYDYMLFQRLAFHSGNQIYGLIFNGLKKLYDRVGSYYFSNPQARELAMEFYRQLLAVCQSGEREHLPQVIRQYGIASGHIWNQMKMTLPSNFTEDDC

B1: fabB_ec probe (dsDNA)
DNA 1: TCTATTAAATGGCTGATCGGACTTGTTCGGCGTACAAGTGTACGCTATTGTGCATTC
DNA 2: GAATGCACAATAGCGTACACTTGTACGCCGAACAAGTCCGATCAGCCATTTAATAGA
For B1, the binding result in the series with FadR_ec [1], with FadR_she [2] and with FadR_vc was “binds” each time.

B2: Shewanella oneidensis FadR protein (natural protein, Shewanella oneidensis MR-1, UniProt Q8ED80 1-240, looked up)
chain: MIINAKGPASFAEKYIVRSIWENKFPPGSILPAERELSELIGVTRTTLREVLQRLARDGWLKIQHGKPTRVNNFWETSGLNILETIADLNPEGFPVLVDQLLSARTNVSAIYFRGALRNNPDTAMEVLAQIHQLEDTAESFAEYDYLLHHTLAFSSGNPLYVLILNGFKGLYSRVGRYYFSSSEARQLALNFYKELELLAKAKNYLDVPALMRTYGINSGKMWLQLRDDMPSSIAQQDSH
With B2, in series [3], the “stoichiometry N” value stood at 2.

B3: fabA_she probe, biotinylated (dsDNA)
DNA 1: GACATTAATTAGCTGATCGGAGTTGTTTAGCTTACACGTGTTCGCTAATCTTGGCG
DNA 2: CGCCAAGATTAGCGAACACGTGTAAGCTAAACAACTCCGATCAGCTAATTAATGTC
In turn, B3 gave a Kd in the series with FadR_she [4] of around 436 nM.

B4: fabA_she probe (dsDNA)
DNA 1: GACATTAATTAGCTGATCGGAGTTGTTTAGCTTACACGTGTTCGCTAATCTTGGCG
DNA 2: CGCCAAGATTAGCGAACACGTGTAAGCTAAACAACTCCGATCAGCTAATTAATGTC
B4: the binding result with FadR_ec [5] is listed as “binds”.

B5: fabA_ec probe (dsDNA)
DNA 1: TTTATTCCGAACTGATCGGACTTGTTCAGCGTACACGTGTTAGCTATCCTGCGTGC
DNA 2: GCACGCAGGATAGCTAACACGTGTACGCTGAACAAGTCCGATCAGTTCGGAATAAA
As to B5, the binding result in the series with FadR_ec [1], with FadR_she [2] and with FadR_vc was “binds” each time.
